B1: Carbon catabolite-derepressing protein kinase (Saccharomyces cerevisiae), P06782 (parent)
chain: MSSNNNTNTAPANANSSHHHHHHHHHHHHHGHGGSNSTLNNPKSSLADGAHIGNYQIVKTLGEGSFGKVKLAYHTTTGQKVALKIINKKVLAKSDMQGRIEREISYLRLLRHPHIIKLYDVIKSKDEIIMVIEYAGNELFDYIVQRDKMSEQEARRFFQQIISAVEYCHRHKIVHRDLKPENLLLDEHLNVKIADFGLSNIMTDGNFLKTSCGSPNYAAPEVISGKLYAGPEVDVWSCGVILYVMLCRRLPFDDESIPVLFKNISNGVYTLPKFLSPGAAGLIKRMLIVNPLNRISIHEIMQDDWFKVDLPEYLLPPDLKPHPEEENENNDSKKDGSSPDNDEIDDNLVNILSSTMGYEKDEIYESLESSEDTPAFNEIRDAYMLIKENKSLIKDMKANKSVSDELDTFLSQSPPTFQQQSKSHQKSQVDHETAKQHARRMASAITQQRTYHQSPFMDQYKEEDSTVSILPTSLPQIHRANMLAQGSPAASKISPLVTKKSKTRWHFGIRSRSYPLDVMGEIYIALKNLGAEWAKPSEEDLWTIKLRWKYDIGNKTNTNEKIPDLMKMVIQLFQIETNNYLVDFKFDGWESSYGDDTTVSNISEDEMSTFSAYPFLHLTTKLIMELAVNSQSN
partner: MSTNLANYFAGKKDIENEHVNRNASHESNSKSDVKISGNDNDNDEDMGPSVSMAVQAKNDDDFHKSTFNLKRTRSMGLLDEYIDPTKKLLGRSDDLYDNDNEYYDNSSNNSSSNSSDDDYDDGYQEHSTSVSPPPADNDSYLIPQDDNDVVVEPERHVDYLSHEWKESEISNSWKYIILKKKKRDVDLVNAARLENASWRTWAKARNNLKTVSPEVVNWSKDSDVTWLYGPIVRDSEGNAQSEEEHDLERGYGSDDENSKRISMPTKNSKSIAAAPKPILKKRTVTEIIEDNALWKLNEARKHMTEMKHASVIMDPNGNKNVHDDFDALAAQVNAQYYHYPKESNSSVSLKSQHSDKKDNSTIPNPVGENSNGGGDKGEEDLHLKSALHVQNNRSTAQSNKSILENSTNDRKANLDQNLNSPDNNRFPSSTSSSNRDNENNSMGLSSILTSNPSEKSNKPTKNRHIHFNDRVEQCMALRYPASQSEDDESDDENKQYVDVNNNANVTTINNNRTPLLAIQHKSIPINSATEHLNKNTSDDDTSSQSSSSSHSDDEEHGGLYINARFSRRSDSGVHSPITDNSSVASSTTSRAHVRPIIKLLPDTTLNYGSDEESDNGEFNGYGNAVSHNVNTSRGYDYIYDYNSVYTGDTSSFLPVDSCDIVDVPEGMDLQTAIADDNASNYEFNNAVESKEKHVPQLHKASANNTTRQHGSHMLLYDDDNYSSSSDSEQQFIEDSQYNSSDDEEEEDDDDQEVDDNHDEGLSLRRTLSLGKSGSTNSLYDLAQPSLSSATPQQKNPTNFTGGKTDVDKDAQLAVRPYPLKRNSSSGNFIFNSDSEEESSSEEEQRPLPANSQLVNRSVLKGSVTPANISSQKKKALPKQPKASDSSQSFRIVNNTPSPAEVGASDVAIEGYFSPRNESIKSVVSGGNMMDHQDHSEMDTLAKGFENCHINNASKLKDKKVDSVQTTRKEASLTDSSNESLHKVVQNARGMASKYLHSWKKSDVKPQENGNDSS

Variants of: B1
Details: with reg1_yeast REG1, Q00816

Row | effect of a mutation on the interaction | Variant
1 | with no effect | K84R

Variants of: B1
Details: with reg1_yeast REG1, Q00816
Remark: another data set of the same source

Row | effect of a mutation on the interaction | Variant
2 | increasing interaction strength | K84R

Source: IntAct's records for PubMed 10648618
